Source: patent US20260274985A1 (MYTHIC THERAPEUTICS, published 2026)
One block for each binder: values may come before it.

Legend:
[1] = biological target: T1, Human TROP2 Protein, His Tag (Acro Biosystems) (human, UniProt P09758 27-274); experiment: Octet BLI, IgG on anti-human Fc sensor; 3 = No binding
T1 construct: Bought antigen used at 50 nM in the Octet screen; also called TACSTD2; not shown: His tag
T1 sequence (looked up): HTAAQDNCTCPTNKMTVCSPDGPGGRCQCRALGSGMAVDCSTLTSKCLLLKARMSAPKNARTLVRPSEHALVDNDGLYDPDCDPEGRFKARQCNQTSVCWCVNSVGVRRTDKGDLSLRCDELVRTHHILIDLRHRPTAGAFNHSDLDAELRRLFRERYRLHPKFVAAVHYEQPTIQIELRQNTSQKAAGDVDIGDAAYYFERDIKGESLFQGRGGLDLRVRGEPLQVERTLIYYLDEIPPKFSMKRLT

[2] = biological target: T2, Human TROP2 Protein, His Tag (Acro Biosystems) (human, UniProt P09758 27-274); experiment: BLI (Octet), antibody on anti-human Fc sensor, 50 nM human TROP2-His, dissociation at pH 7.4 or 5.4; grade 1 = pH dependent
T2 construct: Bought protein; also called TACSTD2; not shown: His tag
T2 sequence: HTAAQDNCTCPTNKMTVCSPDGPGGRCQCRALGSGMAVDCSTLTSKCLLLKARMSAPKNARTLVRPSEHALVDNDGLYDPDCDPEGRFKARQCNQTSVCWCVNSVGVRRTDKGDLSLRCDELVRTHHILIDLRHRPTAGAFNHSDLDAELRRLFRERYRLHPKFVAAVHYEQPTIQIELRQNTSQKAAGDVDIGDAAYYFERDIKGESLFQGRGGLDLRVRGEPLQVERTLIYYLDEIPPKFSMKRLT

[3] = biological target: T1, Human TROP2 Protein, His Tag (Acro …); experiment: Octet BLI, IgG on anti-human Fc sensor, 50 nM TROP2; 1 = pH dependent
[4] = biological target: T2, Human TROP2 Protein, His Tag (Acro …); experiment: BLI (Octet), antibody on anti-human Fc sensor, 50 nM human TROP2-His, dissociation at pH 7.4 or 5.4; grade 2 = No change vs parent
[5] = biological target: T3, Human TROP2 Protein, His Tag (Acro Biosystems) (human, UniProt P09758 27-274); experiment: BLI (Octet), Ab on anti-human Fc sensor, 50 nM TROP2-His; 2 = No change vs parent
T3 construct: Bought protein; not shown: His tag
T3 sequence (looked up): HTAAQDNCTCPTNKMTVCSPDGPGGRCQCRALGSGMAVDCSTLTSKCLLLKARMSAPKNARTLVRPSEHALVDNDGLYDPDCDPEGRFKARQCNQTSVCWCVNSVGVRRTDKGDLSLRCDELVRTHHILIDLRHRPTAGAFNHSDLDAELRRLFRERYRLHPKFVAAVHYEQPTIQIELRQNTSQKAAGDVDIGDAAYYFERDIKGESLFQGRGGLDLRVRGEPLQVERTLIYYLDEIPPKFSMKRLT
Experimental: The resulting diluted supernatants were then captured on an anti-human Fc sensor (Forte Bio). A baseline was established using 1×PBST (50 mM Potassium Phosphate Buffer+150 mM NaCl+0.05% Tween 20) pH 7.4, and the sensor was associated with 50 nM of TROP2 (Human TROP2 Protein, His Tag, Acro Biosystems) in 1×PBST pH 7.4 for 120 sec to generate an association curve. In the dissociation phase, the antibody-antigen complex on the sensor was exposed to 1×PBST pH 7.4 or pH 5.4, for 300 sec. Association and dissociation phase curves were examined for the starting ABPC antibody (with no substitutions) and each corresponding antibody variant at pH 5.4 and pH 7.4 to inform on two criteria: a) enhanced dissociation (i.e., higher koff values) at pH 5.4 due to histidine or alanine substitution compared to the starting ABPC, (with no substitutions), and b) reduced dissociation at pH 7.4 (i.e., lower koff values) compared to pH 5.4 in the antibody variant itself and with the starting ABPC (with no substitutions). […] It was also noted that while some mutations obliterated TROP2 binding, others were tolerated with little or n change in TROP2 binding kinetics.
For each such table, the “MYT #” provides an identifier for each antigen binding protein (ABP), and the values from each column (reading along each row) provide characteristics and data associated with each ABP. […]

B2: MYT12470 (hu7E6SVG variant, LCV substitutions at 93, 94, 97 (Ala at 94)) (antibody, V domains shown)
VH: QVQLQESGPGLVKPSETLSLTCTVSGGSISSYGVHWIRQPPGKGLEWIGVIWTSGVTDYNSALMGRVTISVDTSKNQFSLKLSSVTAADTAVYYCARDGDYDRYTMDYWGQGTLVTVSS
VL: DIVMTQSPDSLAVSLGERATINCRASKSVSTSGYSYMHWYQQKPGQPPKLLIYLASNLESGVPDRFSGSGSGTDFTLTISSLQAEDVAVYYCHASRHLPYTFGQGTKLEIK
notes: Full IgG in Expi293 supernatant
- binding result [2]: binds

B3: MYT11773 (antibody, V domains shown)
VH: QVQLQESGPGLVKPSETLSLTCTVSGGSISSYGVHWIRQPPGKGLEWIGVIWTSGVTDYNSALMGRVTISVDTSKNQFSLKLSSVTAADTAVYYCARDGDYDRYTMDYWGQGTLVTVSS
VL: DIVMTQSPDSLAVSLGERATINCRASKSVSTSGYSYMHWYQQKPGQPPKLLIYLASNLESGVPDRFSGSGSGTDFTLTISSLQAEDVAVYYCQHSRELPHTFGQGTKLEIK
notes: hu7E6SVG variant, His at LCV position 100 (L3 08); screened as IgG in Expi293 supernatant
- binding result [3]: binds

B4: MYT12452 (hu7E6SVG variant, LCV substitutions at 94, 101 (Ala at 94)) (antibody, V domains shown)
VH: QVQLQESGPGLVKPSETLSLTCTVSGGSISSYGVHWIRQPPGKGLEWIGVIWTSGVTDYNSALMGRVTISVDTSKNQFSLKLSSVTAADTAVYYCARDGDYDRYTMDYWGQGTLVTVSS
VL: DIVMTQSPDSLAVSLGERATINCRASKSVSTSGYSYMHWYQQKPGQPPKLLIYLASNLESGVPDRFSGSGSGTDFTLTISSLQAEDVAVYYCQASRELPYHFGQGTKLEIK
notes: as for B2
- binding result [4]: binds

Next, values leading:

- binding result [1]: no binding (tested: 50 nM)
B1: MYT11717 (antibody, V domains shown)
VH: QVQLQESGPGLVKPSETLSLTCTVSGGSISSYGVHWIRQPPGKGLEWIGVIHTSGVTDYNSALMGRVTISVDTSKNQFSLKLSSVTAADTAVYYCARDGDYDRYTMDYWGQGTLVTVSS
VL: DIVMTQSPDSLAVSLGERATINCRASKSVSTSGYSYMHWYQQKPGQPPKLLIYLASNLESGVPDRFSGSGSGTDFTLTISSLQAEDVAVYYCQHSRELPYTFGQGTKLEIK
notes: hu7E6SVG variant, His at HCV position 52 (H2 03); screened as IgG in Expi293 supernatant

- binding result [5]: binds
B5: MYT11583 (antibody, V domains shown)
VH: QVQLQQSGSELKKPGASVKVSCKASGYTFTNYGMNWVKQAPGQGLKWMGWINTYTHEPTYTDDFKGRFAFSLDTSVSTAYLQISSLKADDTAVYFCARGGFGSSYWYFDVWGQGSLVTVSS
VL: DIQLTQSPSSLSASVGDRVSITCKASQDVSIAVAWYQQKPGKAPKLLIYSASYRYTGVPDRFSGSGSGTDFTLTISSLQPEDFAVYYCQQHYITPLTFGAGTKVEIK
notes: Sacituzumab variant, His at HCV position 56 (H2 07)
